This note sets out measurements from article doi:10.1101/2024.10.11.617635 (bioRxiv, 2024).

The data set concerns the molecule itself.

B1: NADK (non-methylated; construct not stated) (enzyme, human, UniProt O95544 1-446, looked up)
chain: MEMEQEKMTMNKELSPDAAAYCCSACHGDETWSYNHPIRGRAKSRSLSASPALGSTKEFRRTRSLHGPCPVTTFGPKACVLQNPQTIMHIQDPASQRLTWNKSPKSVLVIKKMRDASLLQPFKELCTHLMEENMIVYVEKKVLEDPAIASDESFGAVKKKFCTFREDYDDISNQIDFIICLGGDGTLLYASSLFQGSVPPVMAFHLGSLGFLTPFSFENFQSQVTQVIEGNAAVVLRSRLKVRVVKELRGKKTAVHNGLGENGSQAAGLDMDVGKQAMQYQVLNEVVIDRGPSSYLSNVDVYLDGHLITTVQGDGVIVSTPTGSTAYAAAAGASMIHPNVPAIMITPICPHSLSFRPIVVPAGVELKIMLSPEARNTAWVSFDGRKRQEIRHGDSISITTSCYPLPSICVRDPVSDWFESLAQCLHWNVRKKQAHFEEEEEEEEEG
In the case of B1, the “stoichiometry N” value was 4.

B2: methylated NADK (construct not stated) (enzyme, human, UniProt O95544 1-446, looked up)
chain: MEMEQEKMTMNKELSPDAAAYCCSACHGDETWSYNHPIRGRAKSRSLSASPALGSTKEFRRTRSLHGPCPVTTFGPKACVLQNPQTIMHIQDPASQRLTWNKSPKSVLVIKKMRDASLLQPFKELCTHLMEENMIVYVEKKVLEDPAIASDESFGAVKKKFCTFREDYDDISNQIDFIICLGGDGTLLYASSLFQGSVPPVMAFHLGSLGFLTPFSFENFQSQVTQVIEGNAAVVLRSRLKVRVVKELRGKKTAVHNGLGENGSQAAGLDMDVGKQAMQYQVLNEVVIDRGPSSYLSNVDVYLDGHLITTVQGDGVIVSTPTGSTAYAAAAGASMIHPNVPAIMITPICPHSLSFRPIVVPAGVELKIMLSPEARNTAWVSFDGRKRQEIRHGDSISITTSCYPLPSICVRDPVSDWFESLAQCLHWNVRKKQAHFEEEEEEEEEG
modifications: arginine methylation (the paper's sites are R39, R41 and R45, mono- and di-methylated); extent not stated
Regarding B2, the “stoichiometry N” value came out at 4.
